The record followed here is patent US20240116985A1 (published 2024).

Starred links: 1 amine or outer side, 2 acyl side, 3 side chain; linkers in the order of their positions; H or OH if unused. Positions of bridges follow the written chain, without caps; N, C: chain ends. Non-standard residues stand in square brackets, D forms with d. Primed or numbered codes have the meaning given here. B5(10) = 2-amino-2-(pent-4-en-1-yl)hept-6-enoic acid, bis(4-pentenyl)glycine, stitching residue bearing both staples, C=CCCCC(CCCC=C)(N[*:1])C(=O)[*:2]; B5(4) = 2,2-bis(4-pentenyl)glycine = 2-amino-2-(pent-4-en-1-yl)hept-6-enoic acid (stitching residue), C=CCCCC(CCCC=C)(N[*:1])C(=O)[*:2]; B5(33) = 2-amino-2-(pent-4-en-1-yl)hept-6-enoic acid (bis-pentenylglycine, two olefin side chains), C=CCCCC(CCCC=C)(N[*:1])C(=O)[*:2]; B5(20) = 2-amino-2-(pent-4-en-1-yl)hept-6-enoic acid = bis(4-pentenyl)glycine, stitching residue, C=CCCCC(CCCC=C)(N[*:1])C(=O)[*:2]; B5(21) = 2-amino-2-(pent-4-en-1-yl)hept-6-enoic acid, bis(4-pentenyl)glycine (stitching residue), C=CCCCC(CCCC=C)(N[*:1])C(=O)[*:2]; TfeGA = (S)-2-amino-3-((carboxymethyl)(2,2,2-trifluoroethyl)amino)propanoic acid, O=C([C@H](CN(CC(=O)[*:3])CC(F)(F)F)N[*:1])[*:2]; PyrS2 = (S)-3-amino-1-((pent-4-en-1-yloxy)carbonyl)pyrrolidine-3-carboxylic acid, C=CCCCOC(=O)N1CC[C@@](N[*:1])(C(=O)[*:2])C1; SeN = (S)-5-(((allyloxy)carbonyl)(methyl)amino)-2-amino-2-methylpentanoic acid, C=CCOC(=O)N(C)CCC[C@](C)(N[*:1])C(=O)[*:2]; GA = (S)-2-amino-3-((carboxymethyl)amino)propanoic acid, O=C([C@H](CNCC(=O)[*:3])N[*:1])[*:2]; B5 = 2-amino-2-(pent-4-en-1-yl)hept-6-enoic acid, C=CCCCC(CCCC=C)(N[*:1])C(=O)[*:2]; Phe(2-CONH2) = NC(=O)c1ccccc1C[C@H](N)C(=O)O; Phe(2-OMe) = COc1ccccc1C[C@H](N)C(=O)O; 2Nal = N[C@@H](Cc1ccc2ccccc2c1)C(=O)O; Phe(2-Me) = Cc1ccccc1C[C@H](N)C(=O)O; Bta = N[C@@H](Cc1csc2ccccc12)C(=O)O; αAllylPro = C=CC[C@@]1(C(=O)O)CCCN1; tBuAla = CC(C)(C)C[C@H](N)C(=O)O; 3Thi = N[C@@H](Cc1ccsc1)C(=O)O; Aad = N[C@@H](CCCC(=O)O)C(=O)O; S8 = C=CCCCCCC[C@](C)(N)C(=O)O Bounds are passed on as bounds.

Assay [1] has as its target T1, full-length beta-Catenin (Uniprot ID P35222) (Homo sapiens (Human), UniProt P35222 1-781).
T1 construct: also called bCat; B-Catenin
T1 sequence: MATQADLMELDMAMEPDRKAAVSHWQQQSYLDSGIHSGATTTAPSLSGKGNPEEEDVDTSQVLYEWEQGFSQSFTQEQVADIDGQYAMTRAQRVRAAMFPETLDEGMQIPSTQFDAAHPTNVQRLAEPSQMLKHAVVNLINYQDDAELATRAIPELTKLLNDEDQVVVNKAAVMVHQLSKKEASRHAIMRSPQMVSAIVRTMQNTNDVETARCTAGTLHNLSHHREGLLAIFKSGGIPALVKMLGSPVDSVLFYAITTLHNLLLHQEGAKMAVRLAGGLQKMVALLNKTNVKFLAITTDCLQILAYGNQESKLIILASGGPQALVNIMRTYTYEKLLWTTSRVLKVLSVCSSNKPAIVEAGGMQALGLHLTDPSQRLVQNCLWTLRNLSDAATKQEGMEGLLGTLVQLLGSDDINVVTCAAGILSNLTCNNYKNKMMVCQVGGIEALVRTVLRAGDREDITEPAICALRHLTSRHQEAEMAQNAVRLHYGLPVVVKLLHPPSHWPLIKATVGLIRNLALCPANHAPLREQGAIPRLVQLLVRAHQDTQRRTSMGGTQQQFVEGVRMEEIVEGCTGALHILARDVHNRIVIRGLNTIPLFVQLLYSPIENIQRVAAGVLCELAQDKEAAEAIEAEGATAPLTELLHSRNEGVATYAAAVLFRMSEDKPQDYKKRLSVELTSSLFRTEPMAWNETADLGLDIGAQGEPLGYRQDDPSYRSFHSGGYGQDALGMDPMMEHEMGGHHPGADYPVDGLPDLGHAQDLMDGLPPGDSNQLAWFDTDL
The assay is described as follows: fluorescence polarization competition; 10 nM full-length beta-catenin + 10 nM 5FAM-TCF4(10-53) probe. As for the experimental part:
(§1) The plate was incubated protected from light for 60 minutes at 20° C. prior to read. Reads were performed on a CLARIOstar plate reader (BMG Labtech) in duplicate, and data were fitted to a 1:1 binding model with hill slope using an in-house script. All provided concentrations are final concentrations.
A general note: Fluorescence polarisation rises when a labelled molecule tumbles more slowly, as on binding a larger partner.

Assay [2] deals with T2, B-cat-Halo (beta-catenin HaloTag fusion expressed in HEK293 cells) (UniProt P35222 1-781).
T2 sequence (looked up): T1 sequence
The assay is described as follows: cell-based or functional assay.

The target in assay [3] is T3, beta-catenin (full-length, Uniprot ID P35222) (Homo sapiens (Human), UniProt P35222 2-781).
T3 construct: The FP protocol says 'full-length beta-Catenin (Uniprot ID P35222)'; also called bCat; B-Catenin
T3 sequence: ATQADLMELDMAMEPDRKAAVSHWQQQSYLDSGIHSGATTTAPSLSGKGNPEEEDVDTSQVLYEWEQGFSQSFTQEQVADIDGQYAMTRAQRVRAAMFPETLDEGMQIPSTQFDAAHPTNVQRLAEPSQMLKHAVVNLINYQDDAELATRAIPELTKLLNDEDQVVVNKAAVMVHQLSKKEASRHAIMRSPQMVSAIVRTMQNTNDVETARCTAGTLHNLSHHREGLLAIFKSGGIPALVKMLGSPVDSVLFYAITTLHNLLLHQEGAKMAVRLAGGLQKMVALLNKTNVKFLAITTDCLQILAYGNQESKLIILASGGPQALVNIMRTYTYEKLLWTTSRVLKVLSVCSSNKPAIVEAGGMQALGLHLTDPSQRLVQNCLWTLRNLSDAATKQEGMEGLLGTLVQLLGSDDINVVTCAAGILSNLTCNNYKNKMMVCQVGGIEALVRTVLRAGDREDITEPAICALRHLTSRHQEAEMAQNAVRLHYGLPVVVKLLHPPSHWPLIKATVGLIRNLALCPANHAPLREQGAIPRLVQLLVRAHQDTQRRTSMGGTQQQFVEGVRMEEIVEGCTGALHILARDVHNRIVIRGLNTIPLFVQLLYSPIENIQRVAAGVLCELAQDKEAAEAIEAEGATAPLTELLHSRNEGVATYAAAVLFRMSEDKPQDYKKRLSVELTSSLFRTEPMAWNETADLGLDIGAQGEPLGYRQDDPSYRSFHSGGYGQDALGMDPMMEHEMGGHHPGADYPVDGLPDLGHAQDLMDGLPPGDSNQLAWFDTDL
The assay is described as follows: fluorescence polarization competition vs 5FAM-TCF4(10-53) on full-length beta-catenin. As to the method:
as §1

B1: I-527 (peptide)
peptide: XDIXDEAAFQXFXQ
modifications: not fully specified; N-terminal acetyl (Ac); PL3 at X1, B5 at X4 and S8 at X11 stapled (PL3-B5 and B5-S8, olefin metathesis); 2OMeF at X12; BztA at X13; C-terminal amide (NH2)
notes: Stapled peptide composition; also called Ac-PL3-Asp-Ile-B5-Asp-Glu-Ala-Ala-Phe-Gln-S8-2OMeF-BztA-Gln-NH2
On to B1, for which the half-maximal effective concentration (EC50) in assay [1] worked out at 98 nM.

B2: I-508 (peptide)
peptide: XDAXDEAAFQXFXT
modifications: not fully specified; N-terminal acetyl (Ac); PL3 at X1, B5 at X4 and S8 at X11 stapled (PL3-B5 and B5-S8, olefin metathesis); BztA at X13; C-terminal amide (NH2)
notes: Stapled peptide composition; also called Ac-PL3-Asp-Ala-B5-Asp-Glu-Ala-Ala-Phe-Gln-S8-Phe-BztA-Thr-NH2
For the molecule B2, in assay [1], the EC50 came to 73 nM.

B3: I-528 (peptide)
peptide: XDIXDEAAFQXFXQ
modifications: not fully specified; N-terminal acetyl (Ac); PL3 at X1, B5 at X4 and S8 at X11 stapled (PL3-B5 and B5-S8, olefin metathesis); 2OMeF at X12; BztA at X13; C-terminal amide (NH2)
notes: as for B1
For B3, the 50% effective concentration (EC50) in assay [1] was 63 nM.
Regarding Ac-[αAllylPro]D[tBuAla][B5]D[TfeGA]AAFL[PyrS2][Phe(2-Me)][Bta]Q-NH2 (staple 1-4, 4-11) [I-1725], in assay [2], the “NanoBRET Abs IC50” value amounted to 10000 nM.
The same measure, in the same setting: the value for Ac-[αAllylPro]D[tBuAla][B5]D[TfeGA]AAFL[PyrS2][Phe(2-Me)][Bta]Q-NH2 (staple 1-4, 4-11; also: -CH=CH- in each staple reduced to -CH2-CH2-) [I-1726] was more than 20000 nM.

B4: I-512 (peptide)
peptide: Ac-[αAllylPro]DI[B5(20)]DEAAFN[S8][Phe(2-OMe)][Bta]H-NH2
modifications: staple 1-4, 4-11
notes: Stapled peptide composition; also called Ac-PL3-Asp-Ile-B5-Asp-Glu-Ala-Ala-Phe-Asn-S8-2OMeF-BztA-His-NH2
B4: the EC50 in assay [1] came out at 20 nM.

B5: I-514 (peptide)
peptide: Ac-[αAllylPro]DI[B5(20)]DEAAFN[S8][Phe(2-CONH2)][Bta]H-NH2
modifications: staple 1-4, 4-11
notes: Stapled peptide composition; also called Ac-PL3-Asp-Ile-B5-Asp-Glu-Ala-Ala-Phe-Asn-S8-2CBMF-BztA-His-NH2
For the molecule B5, the EC50 in assay [1] was determined as 30 nM.
As for Ac-[αAllylPro]DA[B5(4)]DEAAFV[S8]FWQ-NH2 (staple 1-4, 4-11, Stapled (stitched) peptide) [I-123: Ac-PL3-Asp-Ala-B5-Asp-Glu-Ala-Ala-Phe-Val-S8-Phe-Trp-Gln-NH2], the IC50 in assay [3] was 2110 nM.
The same measure, in the same setting: the value for Ac-[αAllylPro]DA[B5(4)]DEAAFV[S8]FWA-NH2 (staple 1-4, 4-11, Stapled peptide) [I-135: Ac-PL3-Asp-Ala-B5-Asp-Glu-Ala-Ala-Phe-Val-S8-Phe-Trp-Ala-NH2] was 1870 nM.

B6: I-127: Ac-PL3-Asp-Ala-B5-Asp-Gln-Ala-Ala-Phe-Val-S8-Phe-Trp-Gln-NH2 (peptide)
peptide: XDAXDQAAFVXFWQ
modifications: not fully specified; N-terminal Ac; PL3 at 1; B5 at 4; S8 at 11; C-terminal NH2; stapled by olefin metathesis (PL3-B5 and B5-S8)
notes: Stapled peptide
The molecule B6 displayed a concentration for half-maximal inhibition (IC50) in assay [3] of 4840 nM.
On the same count and under the same terms, the value for Ac-[αAllylPro]DA[B5(33)]DNAAFV[S8]FWQ-NH2 (staple 1-4, 4-11, Stapled peptide) [I-125: Ac-PL3-Asp-Ala-B5-Asp-Asn-Ala-Ala-Phe-Val-S8-Phe-Trp-Gln-NH2] was 3060 nM; that for Ac-[αAllylPro]DA[B5(4)]DEAAFV[SeN]FWQ-NH2 (staple 1-4, 4-11, Stapled peptide) [I-131: Ac-PL3-Asp-Ala-B5-Asp-Glu-Ala-Ala-Phe-Val-SeN-Phe-Trp-Gln-NH2] was 2160 nM; that for Ac-[αAllylPro]DA[B5(21)]DEAAFV[S8]F[2Nal]Q-NH2 (staple 1-4, 4-11, Stapled peptide) [I-140: Ac-PL3-Asp-Ala-B5-Asp-Glu-Ala-Ala-Phe-Val-S8-Phe-2NapA-Gln-NH2] was 2270 nM.

B7: I-133: Ac-PL3-Asp-Ala-B5-Asp-Glu-Ala-Ala-Phe-Val-S8-Phe-Trp-Aib-NH2 (peptide)
peptide: XDAXDEAAFVXFWX
modifications: not fully specified; N-terminal Ac; PL3 at 1; B5 at 4; S8 at 11; Aib at 14; C-terminal NH2; stapled by olefin metathesis (PL3-B5 and B5-S8)
notes: Stapled peptide
Molecule B7 gave an IC50 in assay [3] of 5000 nM.
As to Ac-[αAllylPro]D[tBuAla][B5]D[GA]AAFN[PyrS2][3Thi][Bta]Q-NH2 (staple 1-4, 4-11) [I-1733], in assay [2], the “NanoBRET Abs IC50” value is more than 20000 nM.
As to Ac-[αAllylPro]DA[B5(10)]D[Aad]AAFV[S8]FWQ-NH2 (staple 1-4, 4-11, Stapled peptide) [I-129: Ac-PL3-Asp-Ala-B5-Asp-Aad-Ala-Ala-Phe-Val-S8-Phe-Trp-Gln-NH2], the IC50 in assay [3] came out at 1980 nM.

One may read the EC50 as the concentration needed to bring the measured effect to its halfway point. Broadly, the IC50 is the concentration needed to halve the response being measured. Low readings indicate higher potency, high ones lower potency.
